Square brackets hold non-standard residues; d marks the D form. Ends that are not written are not given here. pS = N[C@@H](COP(=O)(O)O)C(=O)O
B5: 14-3-3ζ (human, full-length) (natural protein)
chain: GMDKNELVQKAKLAEQAERYDDMAACMKSVTEQGAELSNEERNLLSVAYKNVVGARRSSWRVVSSIEQKTEGAEKKQQMAREYREKIETELRDICNDVLSLLEKFLIPNASQAESKVFYLKMKGDYYRYLAEVAAGDDKKGIVDQSQQAYQEAFEISKKEMQPTHPIRLGLALNFSVFYYEILNSPEKACSLAKTAFDEAIAELDTLSEESYKDSTLIMQLLRDNLTLWTSDTQGDEAEAGEGGEN
notes: N-terminal glycine retained after TEV cleavage of the His tag; 14-3-3ζ, human, ORF bought from GeneCopoeia, in Gateway pDEST17; full-length; Dimer in the crystal; the ITC stoichiometry counts on the 14-3-3 monomer; also called WT 14-3-3ζ; source: E. coli BL21 (DE3) pLysS, purified (Ni Sepharose, TEV cleavage, second Ni Sepharose pass); not shown: His tag, N-terminal, cleaved

Key:
[1] = target: T1, Chibby 11-mer (Homo sapiens, UniProt Q9Y3M2); assay: ITC
T1 chain: H-KTPPRKSA[pS]LS-NH2

[2] = target: T2, Chibby 13-mer S22P (Homo sapiens, UniProt Q9Y3M2); assay: ITC
T2 chain: KTPPRKSASLPNL

[3] = target: T3, Chibby 18-mer L24A (Homo sapiens, UniProt Q9Y3M2); assay: ITC
T3 chain: KTPPRKSASLSNAHSLDR

[4] = target: T4, Chibby 7-mer S22P (Homo sapiens, UniProt Q9Y3M2); assay: ITC
T4 chain: RKSASLP

[5] = target: T5, Chibby 18-mer (Homo sapiens, UniProt Q9Y3M2); assay: ITC
T5 chain: KTPPRKSA[pS]LSNLHSLDR

[6] = target: T6, Chibby 7-mer (Homo sapiens, UniProt Q9Y3M2); assay: ITC
T6 chain: Ac-RKSA[pS]LS-NH2

[7] = target: T7, Chibby 13-mer (Homo sapiens, UniProt Q9Y3M2); assay: ITC
T7 chain: KTPPRKSA[pS]LSNL

[8] = target: T8, 14-3-3ζΔC12 (human, UniProt P63104 1-233); assay: ITC; VP-ITC, 25°C; ~1-2 mM peptide titrated in 5 uL aliquots into ~100-200 uM 14-3-3ζ in the cell; 50 mM sodium phosphate, 100 mM NaCl, 1 mM DTT, pH 6.8; one-site model; in duplicate; conditions: both partners purified
T8 construct: N-terminal glycine retained after TEV cleavage of the His tag; 14-3-3ζ, human, full-length construct with the 12 C-terminal residues deleted; Unlabelled for ITC; 15N, 13C, 2H labelled for the NMR titrations; also called 14-3-3ζ with the C-terminal 12 residues removed; source: E. coli BL21 (DE3) pLysS, purified (Ni Sepharose, TEV cleavage, second Ni Sepharose pass); not shown: His tag, N-terminal, …
T8 sequence: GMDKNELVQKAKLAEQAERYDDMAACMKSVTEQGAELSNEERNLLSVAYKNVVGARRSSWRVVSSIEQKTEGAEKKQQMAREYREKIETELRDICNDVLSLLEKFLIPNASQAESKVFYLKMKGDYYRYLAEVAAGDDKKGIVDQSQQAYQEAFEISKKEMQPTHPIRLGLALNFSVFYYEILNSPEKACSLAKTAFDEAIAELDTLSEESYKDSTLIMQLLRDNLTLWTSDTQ

[9] = target: T9, 14-3-3ζ K49A (human, UniProt P63104 1-245, K49A); assay: as above; conditions: both partners purified
T9 construct: N-terminal glycine retained after TEV cleavage of the His tag; 14-3-3ζ, human, with the K49A mutation introduced into 14-3-3ζ; source: purified by Ni Sepharose with TEV cleavage as all 14-3-3ζ constructs; not shown: His tag, N-terminal, cleaved
T9 sequence: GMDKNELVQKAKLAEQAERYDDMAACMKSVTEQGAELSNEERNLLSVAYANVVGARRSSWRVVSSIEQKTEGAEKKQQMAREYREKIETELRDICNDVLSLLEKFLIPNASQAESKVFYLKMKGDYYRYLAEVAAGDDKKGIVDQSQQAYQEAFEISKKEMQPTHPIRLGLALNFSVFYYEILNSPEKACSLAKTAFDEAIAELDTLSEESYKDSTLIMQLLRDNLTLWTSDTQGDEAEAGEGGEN

[10] = target: B5; assay: as above; conditions: both partners purified
[11] = target: the molecule itself; assay: crystal structure; 14-3-3ζ (10 mg/mL) co-crystallised with the phosphorylated Cby 18-mer (protein:peptide 1:4), 20 mM Tris pH 7.5, 100 mM NaCl; reservoir 200 mM NH4HCO2, 16-20% PEG 3350; 4°C; 2.41 Å
[12] = target: T10, 14-3-3ζ (human, UniProt P63104 1-245); assay: ITC; duplicate set of titrations; 5 uL aliquots of ~1-2 mM peptide titrated into the 1.4 mL cell with ~100-200 uM 14-3-3ζ; 25 °C; 50 mM sodium phosphate, 100 mM NaCl, 1 mM DTT, pH 6.8; one-site model; n per 14-3-3 monomer; conditions: both partners purified
T10 construct: N-terminal glycine retained after TEV cleavage of the His tag; 14-3-3 zeta, human, ORF purchased from GeneCopoeia, full-length construct; Dimer (~56 kDa); the stoichiometry n counts on the 14-3-3 monomer; also called full-length 14-3-3ζ; source: E. coli BL21 (DE3) pLysS, purified (Ni Sepharose, TEV cleavage, second Ni Sepharose pass); not shown: His tag, N-terminal, cleaved
T10 sequence: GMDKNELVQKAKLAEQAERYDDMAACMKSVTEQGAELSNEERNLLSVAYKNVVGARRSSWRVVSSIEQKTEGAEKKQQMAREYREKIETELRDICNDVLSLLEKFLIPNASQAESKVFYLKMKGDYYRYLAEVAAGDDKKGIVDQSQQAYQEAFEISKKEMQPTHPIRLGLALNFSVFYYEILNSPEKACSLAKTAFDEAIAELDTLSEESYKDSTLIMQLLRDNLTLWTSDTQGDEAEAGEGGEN

[13] = target: T11, 14-3-3ζΔC12 (human, UniProt P63104 1-233); assay: as above; conditions: both partners purified
T11 construct: N-terminal glycine retained after TEV cleavage of the His tag; 14-3-3 zeta, human, full-length 14-3-3ζ with the 12 C-terminal residues deleted; source: E. coli BL21 (DE3) pLysS, purified (Ni Sepharose, TEV cleavage, second Ni Sepharose pass); not shown: His tag, N-terminal, cleaved
T11 sequence: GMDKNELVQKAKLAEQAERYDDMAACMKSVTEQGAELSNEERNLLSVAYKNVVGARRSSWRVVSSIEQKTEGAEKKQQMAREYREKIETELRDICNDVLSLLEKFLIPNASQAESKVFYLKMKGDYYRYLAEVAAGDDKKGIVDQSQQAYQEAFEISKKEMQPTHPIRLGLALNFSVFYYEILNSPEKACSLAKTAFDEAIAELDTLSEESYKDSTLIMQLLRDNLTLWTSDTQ

[14] = target: T12, 14-3-3ζ K49A (human, UniProt P63104 1-245, K49A); assay: as above; conditions: both partners purified
T12 construct: N-terminal glycine retained after TEV cleavage of the His tag; 14-3-3 zeta, human, with the K49A mutation introduced into 14-3-3ζ (the full-length construct); they say that all 14-3-3ζ constructs were purified in the same way; source: E. coli, purified (Ni Sepharose, TEV cleavage, second Ni Sepharose pass); not shown: His tag, N-terminal, cleaved
T12 sequence: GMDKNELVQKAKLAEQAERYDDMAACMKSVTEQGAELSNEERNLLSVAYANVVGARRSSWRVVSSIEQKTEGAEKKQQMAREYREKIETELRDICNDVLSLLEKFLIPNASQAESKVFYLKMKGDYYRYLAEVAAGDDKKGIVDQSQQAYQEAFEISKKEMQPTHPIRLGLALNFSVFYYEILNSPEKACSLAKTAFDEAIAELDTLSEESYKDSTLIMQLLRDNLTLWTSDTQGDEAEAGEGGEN

B1: 14-3-3ζ (protein)
chain: MDKNELVQKAKLAEQAERYDDMAACMKSVTEQGAELSNEERNLLSVAYKNVVGARRSSWRVVSSIEQKTEGAEKKQQMAREYREKIETELRDICNDVLSLLEKFLIPNASQAESKVFYLKMKGDYYRYLAEVAAGDDKKGIVDQSQQAYQEAFEISKKEMQPTHPIRLGLALNFSVFYYEILNSPEKACSLAKTAFDEAIAELDTLSEESYKDSTLIMQLLRDNLTLWTSDTQGDEAEAGEGGEN
B1 gave a Kd [1] of ~18 µM, a Kd [2] of ~1 µM and a Kd [3] of ~21 µM. It also gave a Kd [4] of ~3 µM, a Kd [5] of ~5 µM and a Kd [6] of ~44 µM. It also gave a Kd [7] of ~15 µM.

B2: pCby 18-mer (peptide)
peptide: KTPPRKSA[pS]LSNLHSLDR
notes: Chibby (Cby), human, residues 12-29; free NH2 and COOH ends; also called Cby 18-mer WT; WT Cby 18-mer; source: synthetic peptide, bought: GenScript USA Inc
B2 was tested, and the Kd [8] was 6.8 µM, the dH [8] was -3.35 ± 0.06 kcal/mol and the “stoichiometry N” value [8] was 1.04. For the same binder, the Kd [9] was 3.8 µM, the dH [9] was -4.16 ± 0.05 kcal/mol and the “stoichiometry N” value [9] was 1.01. For the same binder, the Kd [10] was 4.6 µM, the dH [10] was -4.35 ± 0.05 kcal/mol and the “stoichiometry N” value [10] was 0.96.

B3: pCby S22P 18-mer (peptide)
peptide: KTPPRKSA[pS]LPNLHSLDR
notes: Chibby (Cby), human, residues 12-29 with S22P; free NH2 and COOH ends; also called Cby 18-mer S22P; source: synthetic peptide, bought: TUFTS University Core Facility
B3 was tested, and the Kd [9] was 1.9 µM, the dH [9] was -7.13 ± 0.03 kcal/mol and the “stoichiometry N” value [9] was 1.07. The Kd [10] was 0.36 µM, the dH [10] was -8.03 ± 0.02 kcal/mol and the “stoichiometry N” value [10] was 1.05.

B4: pCby 13-mer (peptide)
peptide: KTPPRKSA[pS]LSNL
notes: Chibby (Cby), human, residues 12-24; free NH2 and COOH ends; also called phosphorylated Cby peptide; source: synthetic peptide, bought: GenScript USA Inc
B4 was tested, and the Kd [8] was 14.9 µM, the dH [8] was -2.08 ± 0.03 kcal/mol and the “stoichiometry N” value [8] was 0.99.

B5: binds [11].

B6: pCby 7-mer (peptide)
peptide: Ac-RKSA[pS]LS-NH2
SMILES: CC(=O)N[C@@H](CCCNC(=N)N)C(=O)N[C@@H](CCCCN)C(=O)N[C@@H](CO)C(=O)N[C@@H](C)C(=O)N[C@@H](COP(=O)(O)O)C(=O)N[C@@H](CC(C)C)C(=O)N[C@@H](CO)C(N)=O
notes: Chibby (Cby), human, residues 16-22; also called 16RKSA(pS)LS22; source: synthetic peptide, bought: TUFTS University Core Facility
With B6 the Kd [12] was 47.6 µM and the “stoichiometry N” value [12] was 0.94.

B7: pCby S22P 7-mer (peptide)
peptide: Ac-RKSA[pS]LP-NH2
SMILES: CC(=O)N[C@@H](CCCNC(=N)N)C(=O)N[C@@H](CCCCN)C(=O)N[C@@H](CO)C(=O)N[C@@H](C)C(=O)N[C@@H](COP(=O)(O)O)C(=O)N[C@@H](CC(C)C)C(=O)N1CCC[C@H]1C(N)=O
notes: Chibby (Cby), human, residues 16-22 with S22P; also called Cby 7-mer S22P; 16RKSA(pS)LP22; source: synthetic peptide, bought: TUFTS University Core Facility
B7 was tested, and the Kd [12] was 3.2 µM and the “stoichiometry N” value [12] was 1.02.

B8: pCby S22P 13-mer (peptide)
peptide: KTPPRKSA[pS]LPNL
notes: Chibby (Cby), human, residues 12-24 with S22P; also called Cby 13-mer S22P; source: synthetic peptide, bought: TUFTS University Core Facility
In the case of B8, the Kd [12] is reported as 1.3 µM and the “stoichiometry N” value [12] is reported as 1.02.

B9: pCby 18-mer (peptide)
peptide: KTPPRKSA[pS]LSNLHSLDR
notes: Chibby (Cby), human, residues 12-29; also called Cby 18-mer WT; source: synthetic peptide, bought: GenScript USA Inc
B9 was tested, and the Kd [13] was 8.5 µM, the “stoichiometry N” value [13] was 1.02 and the Kd [12] was 4.9 µM. The “stoichiometry N” value [12] was 0.94, the Kd [14] was 5.5 µM and the “stoichiometry N” value [14] was 1.07.

B10: Cby 18-mer L24A (peptide)
peptide: KTPPRKSA[pS]LSNAHSLDR
notes: Chibby (Cby), human, residues 12-29 with L24A; also called Cby L24A 18-mer; source: synthetic peptide, bought (GenScript USA Inc. or TUFTS University Core Facility)
In the case of B10, the Kd [12] is reported as 25 µM and the “stoichiometry N” value [12] is reported as 1.05.

B11: pCby S22P 18-mer (peptide)
peptide: KTPPRKSA[pS]LPNLHSLDR
notes: Chibby (Cby), human, residues 12-29 with S22P; also called Cby 18-mer S22P; source: synthetic peptide, bought: TUFTS University Core Facility
For B11, the Kd [12] was 0.38 µM, the “stoichiometry N” value [12] was 1.08 and the Kd [14] was 1.8 µM. The “stoichiometry N” value [14] was 0.97.

B12: pCby 13-mer (peptide)
peptide: KTPPRKSA[pS]LSNL
notes: Chibby (Cby), human, residues 12-24; source: synthetic peptide, bought: GenScript USA Inc
In the case of B12, the Kd [13] is reported as 14.5 µM and the “stoichiometry N” value [13] is reported as 1.06.

B13: pCby 11-mer (peptide)
peptide: KTPPRKSA[pS]LS-NH2
modifications: N-terminus assumed
SMILES: CC(C)C[C@H](NC(=O)[C@H](COP(=O)(O)O)NC(=O)[C@H](C)NC(=O)[C@H](CO)NC(=O)[C@H](CCCCN)NC(=O)[C@H](CCCNC(=N)N)NC(=O)[C@@H]1CCCN1C(=O)[C@@H]1CCCN1C(=O)[C@@H](NC(=O)[C@@H](N)CCCCN)[C@@H](C)O)C(=O)N[C@@H](CO)C(N)=O
notes: Chibby (Cby), human, residues 12-22; source: synthetic peptide, bought: TUFTS University Core Facility
B13 was tested, and the Kd [12] was 17.5 µM and the “stoichiometry N” value [12] was 0.96.
